Results as given in patent US20240327509A1, “HUMAN CXCLI6 ANTIBODIES AND THE USE THEREOF” (CELLUS,INC., priority 2021, published 2024).

T1: Recombinant human CXCL16 (rhCXCL16) protein (human, UniProt Q9H2A7 30-118, limits assumed)
T1 construct: Bought recombinant protein (976-CX, R&D systems); also called CXCL16 antigen; 976-CX (R&D systems)
T1 sequence: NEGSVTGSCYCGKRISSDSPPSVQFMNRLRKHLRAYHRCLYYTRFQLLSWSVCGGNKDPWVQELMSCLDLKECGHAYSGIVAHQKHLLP

T2: Recombinant mouse CXCL16 antigen (mouse, UniProt Q8BSU2 27-114, limits assumed)
T2 construct: Bought recombinant protein (503-CX, R&D systems); also called 503-CX (R&D systems)
T2 sequence: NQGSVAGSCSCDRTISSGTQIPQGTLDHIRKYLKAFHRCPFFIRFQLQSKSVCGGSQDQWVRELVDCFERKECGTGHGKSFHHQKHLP

T3: Recombinant human CXCL16 (rhCXCL16) protein (Homo sapiens, UniProt Q9H2A7)
T3 sequence (Q9H2A7 30-118): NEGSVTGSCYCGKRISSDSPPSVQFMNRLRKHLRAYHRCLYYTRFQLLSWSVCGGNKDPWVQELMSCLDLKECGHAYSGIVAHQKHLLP

B1: HC5LC5 (antibody, human IgG1, kappa, V domains shown)
VH: EVQLVESGGGLVQPGGSLKLSCAASGFTFSNAVMNWVRQASGKGLEWVARIRTKPNNYATFYADSVKGRFTFSRDDSKNTAYLQMNSLKTEDTAMYYCTAWTTEGIYWGQGTLVTVSS
VL: DIVMTQSPSSLAVSAGERATINCKSSQSLLYSGNQKNYLAWYQQKPGQSPKLLIYWASTRQSGVPDRFIGSGSGTDFTLTISSLQAEDVAIYYCQQYYDTPWTFGGGTKLELKR
notes: Humanized; human IgG1 / kappa constant domains; also called HCSLCS; humanized CXCL16 antibody HC5LC5
B2: HC5LC2 (antibody, human IgG1, kappa, V domains shown)
VH: EVQLVESGGGLVQPGGSLKLSCAASGFTFSNAVMNWVRQASGKGLEWVARIRTKPNNYATFYADSVKGRFTFSRDDSKNTAYLQMNSLKTEDTAMYYCTAWTTEGIYWGQGTLVTVSS
VL: DIVMTQSPSSLAVSLGETATINCKSSQSLLYSGNQKNYLAWYQQKPGQPPKLLIYWASTRQSGVPDRFTGSGAGTDFTLTISSVQAEDLAIYYCQQYYDTPWTFGGGTKVEIKR
notes: Humanized; human IgG1 / kappa constant domains; also called HCSLC2; humanized CXCL16 antibody HC5LC2
B3: HC0LC0: chimeric antibody that binds to human CXCL16; rat variable regions (CDRs SEQ ID NOs 12-17), heavy SEQ ID NO: 32, light SEQ ID NO: 34 (antibody)
heavy: ACCMGWTLVFLFLLSVTAGVHSAVQLVESGGGLVQPKESLKISCAASGFTFSNAVMNWVRQAPGKGLEWVARIRTKPNNYATFYADSVKGRFTFSRDDSKSMVYLQMDNLKTEDTAMYYCTAWTTEGIYWGQGTLVTVSSAETTAPSVYPLAPGTALKSNSMVTLGCLVKGYFPEPVTVTWNSGALSSGVHTFPAVLQSGLYTLTSSVTVPSSTWSSQAVTCNVAHPASSTKVDKKIVPRECNPCGCTGSEVSSVFIFPPKTKDVLTITLTPKVTCVVVDISQNDPEVRFSWFIDDVEVHTAQTHAPEKQSNSTLRSVSELPIVHRDWLNGKTFKCKVNSGAFPAPIEKSISKPEGTPRGPQVYTMAPPKEEMTQSQVSITCMVKGFYPPDIYTEWKMNGQPQENYKNTPPTMDTDGSYFLYSKLNVKKETWQQGNTFTCSVLHEGLHNHHTEKSLSHSPGK
light: ACCMVSSAQFLGLLLLCFQGTRCDIVMTQSPSSLAVSAGETVTINCKSSQSLLYSGNQKNYLAWYQQKPGQSPKLLIYWASTRQSGVPDRFIGSGSGTDFTLTISSVQAEDLAIYYCQQYYDTPWTFGGGTKLELKRADAAPTVSIFPPSTEQLATGGASVVCLMNNFYPRDISVKWKIDGTERRDGVLDSVTDQDSKDSTYSMSSTLSLTKADYESHNLYTCEVVHKTSSSPVVKSFNRNEC

Assays:
[1] = system: 4T1, a breast cancer cell line; settings: 4T1 in C3H mice; FIG. 7
Protocol: 2×10^6 pieces of 4T1, a breast cancer cell line, were injected into the back of C3H mice, and anticancer drugs were administered to each experimental group from the 5th day when the tumor was formed.

[2] = system: anaplastic thyroid cancer cell line FRO; assay: thyroid cancer mouse model, combination with lenvatinib; assay type: in vivo, nu/nu mice
From the text: We measured tumor size with a caliper and calculated tumor volume using the following equation: volume=½× a×b2, where a=long tumor diameter and b=short tumor diameter.

[3] = molecular target: T1, Recombinant human CXCL16 (rhCXCL16) …; assay: BLI (ForteBio), antibody captured on biosensor, rhCXCL16 in solution, 25 C
Protocol: (§1) The binding characteristics of 25 CXCL16 antibodies were analyzed using the bio-light interferometry (ForteBio). All antibodies were diluted in freshly prepared running buffer. Antibodies were immobilized onto the surface of a series of biosensors using the capture methods at 0.3 μg/mL. Recombinant human CXCL16 (rhCXCL16) protein (100 nM) was passed over the surface to generate a binding response for 10 minutes. Binding data for the antibody and antigen interactions were collected at 25° C. on the biosensors. Then, the running buffer was passed for 10 minutes to dissociate them. The association constant (kₐ) and the dissociation constant (kₐ) were observed, and the equilibrium binding constant (KD) was calculated. […] R2: The value indicating how well the fit and experimental data correlate; X²: The measure of error between the experimental data and fitted line.

[4] = molecular target: T1, Recombinant human CXCL16 (rhCXCL16) …; assay: as above; remark: listed apart in the source
[5] = molecular target: T2, Recombinant mouse CXCL16 antigen; assay: ELISA, recombinant mouse CXCL16 immobilized on the plate, HRP-labeled anti-human IgG detection, OD 450 nm
Protocol: To evaluate the cross-reactivity with mouse CXCL16 antigen, the same ELISA experiment was performed with recombinant mouse CXCL16 antigen (503-CX, R&D systems). The mouse CXCL16 antigen was immobilized onto 96-well plates by incubation for 2 hours at room temperature. Non-specific binding sites were blocked by incubating with 1% BSA in PBS overnight at 4° C. After coating, the plates were washed with PBS. Humanized CXCL16 antibodies at various concentration (0.00 1˜10 nM) were incubated with the immobilized antigen for 2 hours at room temperature. After binding, the plates were washed, incubated with HRP-labeled anti-human IgG antibody (W4031, Promega, USA) for 0.5 hours, and developed using the substrate solution (DY008B, R&D systems). The binding affinity of humanized antibodies was similar to that of IgG antibody.

[6] = molecular target: T3, Recombinant human CXCL16 (rhCXCL16) protein; assay: bio-light interferometry (ForteBio) binding analysis; settings: antibody captured on biosensor, rhCXCL16 100 nM, 25° C.; ND = signal was not detectable
Protocol: as §1, with “(ka)” for “(kₐ)”, “X^2:” for “X²:”

| Molecule | Kd [3] [nM] | koff [3] [s⁻¹] | kon [3] [M⁻¹ s⁻¹] | Res@3.7 nM [4] | binding result [5] | other results |
| --- | --- | --- | --- | --- | --- | --- |
| CC(=O)O[C@H]1C(=O)[C@@]2(C)[C@H]([C@H](OC(=O)c3ccccc3)[C@]3(O)C[C@H](OC(=O)[C@H](O)[C@@H](NC(=O)c4ccccc4)c4ccccc4)C(C)=C1C3(C)C)[C@]1(OC(C)=O)CO[C@@H]1C[C@@H]2O [Taxol, paclitaxel] |  |  |  |  |  | therapeutic effect (tumor growth) [1]: did not have a clear therapeutic effect |
| COc1cc2nccc(Oc3ccc(NC(=O)NC4CC4)c(Cl)c3)c2cc1C(N)=O [lenvatinib] |  |  |  |  |  | therapeutic effect (tumor growth) ([2]; after phase 1, rate the same as that of the control group): therapeutic effect of lenvatinib was lowered; therapeutic effect (tumor growth) ([2]; phase 1 (up to day 22), lenvatinib orally 30 mg/kg/day five times a week): therapeutic effect of lenvatinib was maintained |
| B1 | < 0.001 | < 1e-07 | 18200 | 0.231 | no binding (tested: 1500 ng/mL) |  |
| B2 | 2.5 | 6.07e-05 | 24300 | 0.152 | no binding (tested: 1500 ng/mL) |  |
| B3 |  |  |  |  |  | kd [6]: <1e-07 s⁻¹ |
